For assay [1], the target named is human Claudin-6 (CLDN6) (human) (UniProt P56747). The assay can be described thus: FACS, 1.5 ug Ab, OVCA429 cells (2nd Ab only 885.77).
The target is the same in assay [2]. The assay is described as follows: FACS, 1.5 ug Ab, 293T clone expressing human CLDN6 (2nd Ab only 768.07).
Assay [3] has the same target. The assay can be described thus: FACS, 0.3 ug Ab, ARK2 cells (2nd Ab only 1351.21).
The target is the same in assay [4]. The assay can be described thus: FACS, 1.5 ug Ab, ARK2 cells (2nd Ab only 1351.21).
The target in another assay is T1, mouse Claudin-6 (CLDN6) (mouse, UniProt Q9Z262 1-219).
T1 construct: whole, on cells; GFP fusion on engineered HEK293T cells; also called Mouse CLDN6; murine CLDN6
T1 sequence (looked up): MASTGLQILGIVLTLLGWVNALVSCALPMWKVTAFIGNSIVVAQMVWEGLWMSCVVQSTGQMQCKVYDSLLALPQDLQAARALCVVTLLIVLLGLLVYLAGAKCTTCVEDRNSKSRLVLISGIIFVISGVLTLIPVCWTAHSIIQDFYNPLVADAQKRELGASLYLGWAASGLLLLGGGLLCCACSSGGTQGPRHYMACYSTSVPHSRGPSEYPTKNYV
The assay is described as follows: FACS, 293T clone expressing mouse CLDN6, dose not stated (2nd Ab only 1061.72). The method, then: Two doses (1.5 μg or 0.3 μg) of the humanized antibodies were tested for binding to either human CLDN6 or murine CLDN6 which proteins were expressed by engineered 293T clones.

Assay [5] deals with human Claudin-6 (CLDN6) (human) (UniProt P56747). The assay can be described thus: FACS, 0.3 ug Ab, 293T clone expressing human CLDN6 (2nd Ab only 768.07).
For assay [6] the target is unchanged. The assay can be described thus: FACS titration of labelled mAb on OVCA429 cells (endogenous CLDN6+).
For assay [7] the target is unchanged. The assay is described as follows: FACS titration of labelled mAb on ARK2 cells (endogenous CLDN6+).
Assay [8] concerns the target CLDN3/4 (endogenous on LS513 or MCF7 cells). The assay is described as follows: FACS titration of labelled mAb on MCF7 cells (endogenous CLDN3/4+).
The target in assay [9] is human Claudin-6 (CLDN6) (human) (UniProt P56747). The assay is described as follows: FACS titration of labelled mAb on HEK293T-CLDN6-mGFP cells.
Assay [10] addresses CLDN3/4 (endogenous on LS513 or MCF7 cells). The assay is described as follows: FACS titration of labelled mAb on LS513 cells (endogenous CLDN3/4+).

B1: AB4-4 (antibody, V domains shown)
VH: QVQLVQSGAEVKKPGASVKMSCKASGYTFTSYTMHWIRQAPGQGLEWIGYINPSSTYTHYAQKFQGRATLTADTSTSTAYMELSSLRSEDTAVYYCSRGELGGFAYWGQGTLVTVSS
VL: DVVMTQSPLSLPVTLGQPASISCRSSQSLVHSDGNTYLNWYQQRPGQSPRLLIYKVSNRFSGVPDRFSGSGSGTDFTLKISRVEAEDVGVYYCSQSTHVPYTFGQGTKLEIK
notes: humanized
In the case of B1, the FACS fluorescence in [1] worked out at 1200; in [2], 49000; in [3] it was 1050; in assay [4], 1400; in the assay with mouse Claudin-6 (CLDN6), 741; in assay [5] it was 14100.

B2: AB4-3 (antibody, V domains shown)
VH: QVQLVQSGAEVKKPGASVKVSCKASGYTFTSYTMHWVRQAPGQGLEWMGYINPSSTYTHYAQKFQGRVTMTADTSTSTVYMELSSLRSEDTAVYYCSRGELGGFAYWGQGTLVTVSS
VL: DVVMTQSPLSLPVTLGQPASISCRSSQSLVHSDGNTYLNWYQQRPGQSPRLLIYKVSNRFSGVPDRFSGSGSGTDFTLKISRVEAEDVGVYYCSQSTHVPYTFGQGTKLEIK
notes: humanized
With B2, the FACS fluorescence was found to be 1160 in assay [1]; 47800 in assay [2]; 1190 in [3]; 1520 in [4]; 671 in the assay with mouse Claudin-6 (CLDN6); 14300 in assay [5].

B3: AB4-5 (antibody, V domains shown)
VH: QVQLVQSGAEVKKPGASVKMSCKASGYTFTSYTMHWIRQAPGQGQEWIGYINPSSTYTHYAQKFQGRATLTADTSTSTAYMELSSLRSEDTAVYYCSRGELGGFAYWGQGTLVTVSS
VL: DVVMTQSPLSLPVTLGQPASISCRSSQSLVHSDGNTYLNWYQQRPGQSPRLLIYKVSNRFSGVPDRFSGSGSGTDFTLKISRVEAEDVGVYYCSQSTHVPYTFGQGTKLEIK
notes: humanized
In the case of B3, the FACS fluorescence in assay [1] is 1350; in assay [2], 43400; in assay [3], 967; in assay [4], 1200; with mouse Claudin-6 (CLDN6) it was 2000; in assay [5], 16800.

B4: AB11-chim (antibody, V domains shown)
VH: DVQLVESGGGLVQPRGSRKLSCAASGFTFSSFGMHWVRQAPEKGLEWVAYISSDSRTIYYADTVKGRFTISRDNPTNTLFLQMTSLRSEDTAMYYCARDYGRTYEAYWGQGTLVTVSA
VL: DIVLTQSPASLAVSLGQRATISCRASKSVSTSGYSYIHWYQQKPGQPPKLLIYLASNLESGVPARFSGSGSGTDFTLNIHPVEEEDAATYYCQHSRELPLTFGAGTKLELK
With B4, the FACS fluorescence in assay [1] is 2440; in assay [2], 3490; in assay [3] it was 1320; in assay [4], 1260; in the assay with mouse Claudin-6 (CLDN6) it was 5490; in assay [5], 1670.

B5: AB4-chim (antibody, V domains shown)
VH: QVQLQQSGAELARPGASVKMSCKASGYTFTSYTMHWIKQRPGQGQEWIGYINPSSTYTHYIKKFKDKATLTADKSSSTAYMQLRSLTSEDSAVYYCSRGELGGFAYWGQGTLVTVSA
VL: DVVMTQTPLSLPVSLGDQASISCRSSQSLVHSDGNTYLNWYLQKPGQSPKLLIYKVSNRFSGVPDRFSGSGSGTDFTLKIRRVEAEDLGVYFCSQSTHVPYTFGGGTKLEIK
For B5, the FACS fluorescence in [1] was determined as 64800; in [2], 327000; in assay [3], 19100; in assay [4], 38400; in the assay with mouse Claudin-6 (CLDN6), 3640; in [5], 176000.

B6: AB9 (antibody, V domains shown)
VH: EVQLQQSGPELVKPGASVKMSCKASGYRFTDYNMHWVKQSHGKSLEWIGYINPNNGGTNYNQNFKGKATLTVNKSSSTAYMELRSLTSEDSAAYYCARDYLYFFDCWGQGTTLTVSS
VL: DIQMTQSPASQSASLGESVTITCLASQTIGTWLAWYQQKPGKSPQLLIYAAASLADGVPSRFSGSGSGTRFSFKISSLQAEDFVSYYCQQLYSIPRTFGGGTKLEIK
Turning to B6, the EC50 turned out to be 1160 nM in assay [6]; 1140 nM in assay [7]; 5000 nM in assay [8]; 2670 nM in assay [9]; 1040 nM in [10].

B7: AB13 (antibody, V domains shown)
VH: QVQLQQSGAELVRPGTSVKVSCKASGYAFSNYLIEWVKQRPGQGLEWIGVINPGSGGTNYNEKFKGKATMTADKSSSTAYMHLSNLTSEDSVVYFCARSYFGRSYPYTMDYWGQGTSVTVSS
VL: EIVLTQSPTTMAASPGEKITITCSASSSISSNYLHWYQQKPGFSPKLLIYRTSNLASGVPARFSGSGSGTSYSLTIGTMEAEDVATYYCQQGSSIPLTFGAGTKLELK
Turning to B7, the EC50 in [6] was found to be 2290 nM; in [7] it was 1150 nM; in assay [8], 5000 nM; in [9], 5000 nM; in assay [10], 1590 nM.

B8: AB9-4 (antibody, V domains shown)
VH: QVQLVQSGAEVKKPGASVKMSCKASGYRFTDYNMHWVRQAPGQGLEWIGYINPNNGGTNYAQKFQGRATLTVDTSTSTAYMELSSLRSEDTAVYYCARDYLYFFDCWGQGTLLTVSS
VL: DIQMTQSPSSLSASVGDRVTITCRASQTIGTWLAWYQQKPGKAPKLLIYAAASLADGVPSRFSGSGSGTDFTFTISSLQPEDFVTYYCQQLYSIPRTFGQGTKLEIK
notes: humanized
Take B8: the FACS fluorescence in assay [1] is 1110; in assay [2], 34300; in [3] it was 1120; in [4], 1550; in the assay with mouse Claudin-6 (CLDN6), 1710; in [5], 15300.

B9: AB14 (antibody, V domains shown)
VH: QVQLQQSGPELVRPGVSVKISCKGSGYTFTDYAMHWVKQSHAKSLEWIGVISTYSGNTNYNQKFQDKATMTVDKSSSTAYMALARLTSDDSAIYYCARRGDYSLYAMDYWGQGTSVTVSS
VL: DIVLTQSPASLAVSLGQRATISCKASQSVDYDGDNYVNWYQQKVGQPPKLLISAASNLESGIPARFSGSGSGTDFTLNIHPVEEEDAATYYCQQSNEDPFTFGSGTKLEIK
In the case of B9, the EC50 is 1660 nM in [6]; 1300 nM in [7]; 546 nM in [8]; 5000 nM in [9]; 1160 nM in assay [10].

B10: AB11-2 (antibody, V domains shown)
VH: EVQLVESGGGLVQPGGSLRLSCAASGFTFSSFGMHWVRQAPGKGLEWVAYISSDSRTIYYADSVKGRFTISRDNAKNSLYLQMNSLRAEDTAVYYCARDYGRTYEAYWGQGTLVTVSS
VL: DIVMTQSPDSLAVSLGERATINCRASKSVSTSGYSYIHWYQQKPGQPPKLLIYLASNLESGVPDRFSGSGSGTDFTLTISSLQAEDVAVYYCQHSRELPLTFGQGTKLEIK
notes: humanized
Regarding B10, the FACS fluorescence in assay [1] is 2690; in [2], 2560; in assay [3], 1400; in assay [4] it was 1940; with mouse Claudin-6 (CLDN6), 7160; in assay [5] it was 1290.

B11: AB11-3 (antibody, V domains shown)
VH: EVQLVESGGGLVQPGGSLRLSCAASGFTFSSFGMHWVRQAPGKGLEWVAYISSDSRTIYYADSVKGRFTISRDNAKNSLYLQMNSLRAEDTAVYYCARDYGRTYEAYWGQGTLVTVSS
VL: DIVLTQSPDSLAVSLGERATINCRASKSVSTSGYSYIHWYQQKPGQPPKLLIYLASNLESGVPDRFSGSGSGTDFTLTISSVQAEDVAVYYCQHSRELPLTFGQGTKLELK
notes: humanized
B11: the FACS fluorescence in assay [1] is 2200; in assay [2], 2360; in assay [3] it was 1320; in assay [4], 1540; in the assay with mouse Claudin-6 (CLDN6) it was 5520; in assay [5] it was 1010.

B12: AB17 (antibody, V domains shown)
VH: QVQLQQSGAELAKPGASVKMSCKASGYTFTGYWMHWVKQRPGQGLEWLGYINPSTGYTESNQKFKDKATLTADKSSTTAYMQLRSLTPEDSAVYYCAREGITTVLVDYWGQGTTLTVSS
VL: QIVLTQSPAIMSASLGERVTMTCTASSSVSSSYLHWYQQKPGSSPKLWIYSTSNLASGVPARFSGSGSGTSYSLTISSMEAEDAATYYCHQYHRSPPTFGAGTKLELK
Take B12: the EC50 in [6] came out at 5000 nM; in [7], 5000 nM; in assay [8], 5000 nM; in [9], 2650 nM; in assay [10] it was 5000 nM.

(Values after US20230049752A1 (University of California, published 2023).)
